Experimental findings from patent US20160215020A1 (published 2016) are described below.

The assay has as its target complement component C3 (human) (human, UniProt P01024 23-1663). The experiment in a line: cell-based or functional assay.

B1: (CA28-AEEAc)8-PEG40k (peptide)
peptide: ICVWQDWGAHRCTK
modifications: N-terminal acetyl; (1Me)Trp at position 4; disulfide Cys2-Cys12; AEEAc between Thr13 and Lys; C-terminal amide; Lys side chain coupled to an arm of an eight-arm 40 kD PEG (NOF SUNBRIGHT HGEO-400GS)
With B1, the “IC50, classical complement inhibition assay (C3b deposition ELISA), as a function of CA28 moiety concentration” value was 1930 nM.
